# Measurements as given in the supplement of paper PMC9112550, “Optimization of the antimicrobial peptide Bac7 by deep mutational scanning” (BMC Biology, 2022).
# Test system: Escherichia coli TOP10
# Test: shrunken log2 fold change of peptide-encoding DNA abundance (4.5 h post-induction vs induction); higher = less antimicrobial activity (less host growth inhibition)
# Conditions: time post-induction: 4.5 h; library: site-saturation at positions 5, 18, 19, 20
# 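Further: peptides expressed intracellularly from a pBAD plasmid library in pooled LB shake-flask culture, induced with 0.3% L-arabinose, DNA abundance read by NGS, three biological replicates, DESeq2 with apeglm shrinkage.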
sequence,measurement,value
RRIRGRPPRLPRPRPRPNMKPRP,shrunken log2 fold change,0.275
RRIRSRPPRLPRPRPRPIGWPRP,shrunken log2 fold change,0.142
RRIRRRPPRLPRPRPRPSHCPRP,shrunken log2 fold change,-0.041
RRIRFRPPRLPRPRPRPWTVPRP,shrunken log2 fold change,-0.0388
RRIRFRPPRLPRPRPRPWCYPRP,shrunken log2 fold change,-0.751
RRIRCRPPRLPRPRPRPMHTPRP,shrunken log2 fold change,-0.106
RRIRMRPPRLPRPRPRPPDLPRP,shrunken log2 fold change,0.129
RRIRYRPPRLPRPRPRPVPEPRP,shrunken log2 fold change,-0.294
RRIRWRPPRLPRPRPRPGGTPRP,shrunken log2 fold change,0.209
RRIRLRPPRLPRPRPRPAGYPRP,shrunken log2 fold change,-0.0817
RRIRVRPPRLPRPRPRPWDAPRP,shrunken log2 fold change,-0.0951
RRIRERPPRLPRPRPRPTDVPRP,shrunken log2 fold change,-0.0755
RRIRVRPPRLPRPRPRPCSRPRP,shrunken log2 fold change,-0.0712
RRIRKRPPRLPRPRPRPNMPPRP,shrunken log2 fold change,0.145
RRIRGRPPRLPRPRPRPTRMPRP,shrunken log2 fold change,0.571
RRIRMRPPRLPRPRPRPPTFPRP,shrunken log2 fold change,0.122
RRIRIRPPRLPRPRPRPWPFPRP,shrunken log2 fold change,-0.259
RRIRVRPPRLPRPRPRPLYVPRP,shrunken log2 fold change,-0.705
RRIRNRPPRLPRPRPRPETNPRP,shrunken log2 fold change,0.196
RRIRYRPPRLPRPRPRPQCLPRP,shrunken log2 fold change,0.0613
RRIRFRPPRLPRPRPRPLNTPRP,shrunken log2 fold change,-0.483
RRIRLRPPRLPRPRPRPYIMPRP,shrunken log2 fold change,-1.45
RRIRLRPPRLPRPRPRPTSTPRP,shrunken log2 fold change,-0.194
RRIRYRPPRLPRPRPRPDGHPRP,shrunken log2 fold change,-0.024
RRIRTRPPRLPRPRPRPHPGPRP,shrunken log2 fold change,0.106
RRIRNRPPRLPRPRPRPGMSPRP,shrunken log2 fold change,-0.238
RRIRVRPPRLPRPRPRPMPIPRP,shrunken log2 fold change,0.055
RRIRFRPPRLPRPRPRPCSAPRP,shrunken log2 fold change,-0.103
RRIRNRPPRLPRPRPRPANEPRP,shrunken log2 fold change,-0.00326
RRIRERPPRLPRPRPRPNAVPRP,shrunken log2 fold change,-0.407
RRIRARPPRLPRPRPRPRAEPRP,shrunken log2 fold change,0.983
RRIRTRPPRLPRPRPRPNLLPRP,shrunken log2 fold change,-0.245
RRIRRRPPRLPRPRPRPKMKPRP,shrunken log2 fold change,0.316
RRIRIRPPRLPRPRPRPTRAPRP,shrunken log2 fold change,0.561
RRIRIRPPRLPRPRPRPPACPRP,shrunken log2 fold change,0.498
RRIRLRPPRLPRPRPRPSQKPRP,shrunken log2 fold change,0.00285
RRIRTRPPRLPRPRPRPLYTPRP,shrunken log2 fold change,-0.322
RRIRLRPPRLPRPRPRPKPYPRP,shrunken log2 fold change,0.00713
RRIRTRPPRLPRPRPRPFHLPRP,shrunken log2 fold change,-0.0758
RRIRLRPPRLPRPRPRPMYCPRP,shrunken log2 fold change,-0.0105
RRIRSRPPRLPRPRPRPSFEPRP,shrunken log2 fold change,0.0257
RRIRVRPPRLPRPRPRPKDKPRP,shrunken log2 fold change,-0.13
RRIRSRPPRLPRPRPRPLQWPRP,shrunken log2 fold change,-0.0911
RRIRQRPPRLPRPRPRPCNCPRP,shrunken log2 fold change,-0.0201
RRIRRRPPRLPRPRPRPDTRPRP,shrunken log2 fold change,-0.0459
RRIRPRPPRLPRPRPRPQQYPRP,shrunken log2 fold change,-0.108
RRIRKRPPRLPRPRPRPYAIPRP,shrunken log2 fold change,0.0303
RRIRWRPPRLPRPRPRPMSFPRP,shrunken log2 fold change,0.00806
RRIRTRPPRLPRPRPRPMLQPRP,shrunken log2 fold change,0.00738
RRIRKRPPRLPRPRPRPCFNPRP,shrunken log2 fold change,-0.0824
RRIRERPPRLPRPRPRPAWRPRP,shrunken log2 fold change,0.532
RRIRLRPPRLPRPRPRPDGRPRP,shrunken log2 fold change,-0.00938
RRIRIRPPRLPRPRPRPCIHPRP,shrunken log2 fold change,-0.488
RRIRRRPPRLPRPRPRPQCGPRP,shrunken log2 fold change,0.317
RRIRHRPPRLPRPRPRPMPYPRP,shrunken log2 fold change,-0.00164
RRIRLRPPRLPRPRPRPNVYPRP,shrunken log2 fold change,-0.186
RRIRTRPPRLPRPRPRPAYVPRP,shrunken log2 fold change,-0.27
RRIRKRPPRLPRPRPRPHKWPRP,shrunken log2 fold change,-0.0776
RRIRRRPPRLPRPRPRPSFVPRP,shrunken log2 fold change,-0.0435
RRIRPRPPRLPRPRPRPTTFPRP,shrunken log2 fold change,-0.173
RRIRIRPPRLPRPRPRPALEPRP,shrunken log2 fold change,-0.0629
RRIRFRPPRLPRPRPRPQMSPRP,shrunken log2 fold change,-0.204
RRIRTRPPRLPRPRPRPCRVPRP,shrunken log2 fold change,-0.346
RRIRERPPRLPRPRPRPKPQPRP,shrunken log2 fold change,0.309
RRIRFRPPRLPRPRPRPEKVPRP,shrunken log2 fold change,-0.0394
RRIRRRPPRLPRPRPRPVNEPRP,shrunken log2 fold change,0.196
RRIRWRPPRLPRPRPRPVPIPRP,shrunken log2 fold change,-0.0691
RRIRNRPPRLPRPRPRPRMRPRP,shrunken log2 fold change,0.867
RRIRMRPPRLPRPRPRPEMQPRP,shrunken log2 fold change,2.83
RRIRWRPPRLPRPRPRPASMPRP,shrunken log2 fold change,-0.0478
RRIRWRPPRLPRPRPRPNTPPRP,shrunken log2 fold change,0.144
RRIRSRPPRLPRPRPRPAGEPRP,shrunken log2 fold change,0.0686
RRIRCRPPRLPRPRPRPCPTPRP,shrunken log2 fold change,0.0528
RRIRWRPPRLPRPRPRPRCCPRP,shrunken log2 fold change,0.448
RRIRERPPRLPRPRPRPFDIPRP,shrunken log2 fold change,-0.103
RRIRARPPRLPRPRPRPQWDPRP,shrunken log2 fold change,0.00442
RRIRDRPPRLPRPRPRPTCRPRP,shrunken log2 fold change,0.175
RRIRFRPPRLPRPRPRPCWYPRP,shrunken log2 fold change,-0.225
RRIRDRPPRLPRPRPRPVACPRP,shrunken log2 fold change,0.35
RRIRCRPPRLPRPRPRPMGAPRP,shrunken log2 fold change,0.144
RRIRHRPPRLPRPRPRPYPCPRP,shrunken log2 fold change,-0.152
RRIRFRPPRLPRPRPRPFMWPRP,shrunken log2 fold change,-0.168
RRIRSRPPRLPRPRPRPWACPRP,shrunken log2 fold change,0.0189
RRIRIRPPRLPRPRPRPWWDPRP,shrunken log2 fold change,-0.309
RRIRQRPPRLPRPRPRPTVVPRP,shrunken log2 fold change,-0.00822
RRIRCRPPRLPRPRPRPCPMPRP,shrunken log2 fold change,-8.18e-06
RRIRYRPPRLPRPRPRPRGGPRP,shrunken log2 fold change,0.139
RRIRLRPPRLPRPRPRPALGPRP,shrunken log2 fold change,0.935
RRIRNRPPRLPRPRPRPNNRPRP,shrunken log2 fold change,0.113
RRIRERPPRLPRPRPRPTQHPRP,shrunken log2 fold change,0.239
RRIRNRPPRLPRPRPRPMIEPRP,shrunken log2 fold change,0.00437
RRIRGRPPRLPRPRPRPQSHPRP,shrunken log2 fold change,0.214
RRIRQRPPRLPRPRPRPEIAPRP,shrunken log2 fold change,-0.151
RRIRLRPPRLPRPRPRPSQWPRP,shrunken log2 fold change,0.0987
RRIRGRPPRLPRPRPRPQQVPRP,shrunken log2 fold change,0.564
RRIRNRPPRLPRPRPRPIIQPRP,shrunken log2 fold change,-0.481
RRIRNRPPRLPRPRPRPMWAPRP,shrunken log2 fold change,-0.0203
RRIRARPPRLPRPRPRPEFKPRP,shrunken log2 fold change,0.0365
RRIRCRPPRLPRPRPRPFWEPRP,shrunken log2 fold change,-0.0195
RRIRVRPPRLPRPRPRPWKNPRP,shrunken log2 fold change,0.0224
RRIRPRPPRLPRPRPRPAIQPRP,shrunken log2 fold change,-0.00944
RRIRPRPPRLPRPRPRPGVEPRP,shrunken log2 fold change,0.249
RRIRPRPPRLPRPRPRPGEQPRP,shrunken log2 fold change,1.29
RRIRLRPPRLPRPRPRPMFGPRP,shrunken log2 fold change,0.109
RRIRYRPPRLPRPRPRPNDDPRP,shrunken log2 fold change,-0.0641
RRIRHRPPRLPRPRPRPQAAPRP,shrunken log2 fold change,-0.0209
RRIRCRPPRLPRPRPRPPFAPRP,shrunken log2 fold change,0.455
RRIRMRPPRLPRPRPRPNWHPRP,shrunken log2 fold change,-0.0297
RRIRRRPPRLPRPRPRPHCWPRP,shrunken log2 fold change,0.11
RRIRGRPPRLPRPRPRPNDDPRP,shrunken log2 fold change,0.349
RRIRHRPPRLPRPRPRPLWWPRP,shrunken log2 fold change,0.237
RRIRYRPPRLPRPRPRPNHCPRP,shrunken log2 fold change,0.00938
RRIRNRPPRLPRPRPRPHSPPRP,shrunken log2 fold change,-0.415
RRIRKRPPRLPRPRPRPLGHPRP,shrunken log2 fold change,0.166
RRIRPRPPRLPRPRPRPQHMPRP,shrunken log2 fold change,-0.537
RRIRSRPPRLPRPRPRPKREPRP,shrunken log2 fold change,0.393
RRIRWRPPRLPRPRPRPVPGPRP,shrunken log2 fold change,0.491
RRIRERPPRLPRPRPRPKGNPRP,shrunken log2 fold change,0.139
RRIRARPPRLPRPRPRPTWWPRP,shrunken log2 fold change,0.568
RRIRSRPPRLPRPRPRPLSNPRP,shrunken log2 fold change,-0.00773
RRIRCRPPRLPRPRPRPRWHPRP,shrunken log2 fold change,-0.00459
RRIRCRPPRLPRPRPRPGMEPRP,shrunken log2 fold change,0.183
RRIRKRPPRLPRPRPRPFQYPRP,shrunken log2 fold change,-0.284
RRIRIRPPRLPRPRPRPMYHPRP,shrunken log2 fold change,-0.839
RRIRERPPRLPRPRPRPVLVPRP,shrunken log2 fold change,-0.0151
